Laboratory results: patent JP2007530675A (dated 2007)

What was measured:
[1] = biological target: T1, mu25/hu75 chimeric CS1-Fc (human/mouse chimera; human, UniProt P01857-1 99-330 = IgG part, limits assumed); experiment: sandwich ELISA, captured chimeric CS1-Fc
T1 construct: domain: Fc

[2] = biological target: T2, hu25/mu75 chimeric CS1-Fc (human/mouse chimera; human, UniProt P01857-1 99-330 = IgG part, limits assumed); experiment: sandwich ELISA, captured chimeric CS1-Fc
T2 construct: domain: Fc
T2 sequence (P01857 other isoform, or with tags, fused parts or gaps mutant limits assumed): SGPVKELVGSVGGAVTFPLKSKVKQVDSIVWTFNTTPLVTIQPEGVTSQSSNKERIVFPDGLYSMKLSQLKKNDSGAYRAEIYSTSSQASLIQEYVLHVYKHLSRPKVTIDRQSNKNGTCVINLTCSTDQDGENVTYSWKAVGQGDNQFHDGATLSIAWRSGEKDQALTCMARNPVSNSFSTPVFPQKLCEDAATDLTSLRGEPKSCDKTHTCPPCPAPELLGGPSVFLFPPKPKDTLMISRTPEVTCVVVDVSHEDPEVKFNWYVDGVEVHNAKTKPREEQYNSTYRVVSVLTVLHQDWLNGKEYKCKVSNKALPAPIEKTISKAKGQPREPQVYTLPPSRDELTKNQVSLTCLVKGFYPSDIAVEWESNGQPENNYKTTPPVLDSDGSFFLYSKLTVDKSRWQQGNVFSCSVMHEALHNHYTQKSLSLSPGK

CS1 ECD-myc-GPI [3] = biological target: T3, CS1 ECD-myc-GPI (human, UniProt Q9NQ25 23-226, GPI linkage at the C-terminus); experiment: cell-based or functional assay
[4] = biological target: human CS1-Fc fusion protein (Biacore analyte) (human) (UniProt Q9NQ25); experiment: SPR (BIAcore 2000), antibody immobilised, CS1-Fc as analyte, bivalent analyte model
[5] = biological target: T4, full-length wild-type human CS1 (human, UniProt Q9NQ25 23-335); experiment: FACS on K562 and Daudi cells
T4 construct: Native CS1 on K562 and Daudi cells, myeloma and B-cell lines, tonsil/synovial and patient plasma cells; also called SLAMF7; 19A

[6] = biological target: T5, human CS1-Fc fusion protein (Biacore analyte) (human, UniProt Q9NQ25 23-226, limits assumed); experiment: SPR (BIAcore 2000), antibody immobilised, CS1-Fc as analyte
T5 construct: kept apart; also called CS-Fc; not shown: Fc part

[7] = biological target: T6, CS1 ECD-Fcγ3 fusion protein (human, UniProt Q9NQ25 23-226); experiment: ELISA on CS1-γ3 fusion protein
T6 construct: also called CS1-γ3; CS1-Fc-γ3; not shown: constant region of human IgG3 (human Fc-γ3) from the vector

CS1 ECD-myc-GPI [8] = biological target: T3, CS1 ECD-myc-GPI; experiment: FACS on NSO-CS1 transfectants
[9] = biological target: T6, CS1 ECD-Fcγ3 fusion protein; experiment: direct binding ELISA, plate coated with 1 μg/ml soluble human CS1-human Fcγ3 fusion protein

T1 sequence (P01857 other isoform, or with tags, fused parts or gaps mutant limits assumed): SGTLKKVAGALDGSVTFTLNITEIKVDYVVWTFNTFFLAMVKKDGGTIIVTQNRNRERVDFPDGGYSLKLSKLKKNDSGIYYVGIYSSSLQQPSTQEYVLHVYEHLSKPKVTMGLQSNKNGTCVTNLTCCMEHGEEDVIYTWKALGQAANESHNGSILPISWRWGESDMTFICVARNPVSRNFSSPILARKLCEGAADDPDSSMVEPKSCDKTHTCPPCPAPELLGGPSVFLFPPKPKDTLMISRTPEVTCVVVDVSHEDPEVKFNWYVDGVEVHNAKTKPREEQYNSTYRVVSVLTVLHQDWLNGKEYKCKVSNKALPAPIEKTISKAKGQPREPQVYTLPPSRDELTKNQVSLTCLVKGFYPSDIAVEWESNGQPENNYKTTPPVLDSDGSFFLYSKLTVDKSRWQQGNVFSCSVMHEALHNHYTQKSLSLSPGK

B1: Luc90 (antibody, V domains shown)
VH: QVQLQQPGAELVRPGASVKLSCKASGYSFTTYWMNWVKQRPGQGLEWIGMIHPSDSETRLNQKFKDKATLTVDKSSSTAYMQLSSPTSEDSAVYYCARSTMIATRAMDYWGQGTSVTVSS
VL: DIVMTQSQKSMSTSVGDRVSITCKASQDVITGVAWYQQKPGQSPKLLIYSASYRYTGVPDRFTGSGSGTDFTFTISNVQAEDLAVYYCQQHYSTPLTFGAGTKLELK
notes: mouse anti-human CS1 monoclonal, IgG2b; also called Luc90.H1; Luc90H1
binding result [1]: no binding (tested: 2 μg/ml) | binding result [2]: no binding (tested: 2 μg/ml) | 細胞傷害性(%) (ADCC, LDH release, PBMC effectors 20:1) (CS1 ECD-myc-GPI [3]): ~50% | fold higher binding affinity than Luc34.1 [4]: 28 fold | fold higher binding affinity than Luc63.2 [4]: 5.5 fold

B2: Luc34 (antibody, V domains shown)
VH: QVQLQQSGAELARPGASVKLSCKASGYTFTSYWMQWVKQRPGQGLEWIGAIYPGDGDTRYTQKFKGKATLTADKSSSTAYMQLSSLASEDSAVYYCARGKVYYGSNPFAYWGQGTLVTVSA
VL: DIQMTQSSSYLSVSLGGRVTITCKASDHINNWLAWYQQKPGNAPRLLISGATSLETGVPSRFSGSGSGKDYTLSITSLQTEDVATYYCQQYWSTPWTFGGGTKLEIK
notes: mouse anti-human CS1 monoclonal; also called Luc34.1
binding result [5]: binds | binding result [1]: no binding (tested: 2 μg/ml) | binding result [2]: no binding (tested: 2 μg/ml) | binding result [6]: binds | binding result [7]: binds | binding result (CS1 ECD-myc-GPI [8]): binds

B3: Luc63 (antibody, V domains shown)
VH: EVKLLESGGGLVQPGGSLKLSCAASGFDFSRYWMSWVRQAPGKGLEWIGEINPDSSTINYTPSLKDKFIISRDNAKNTLYLQMSKVRSEDTALYYCARPDGNYWYFDVWGAGTTVTVSS
VL: DIVMTQSHKFMSTSVGDRVSITCKASQDVGIAVAWYQQKPGQSPKLLIYWASTRHTGVPDRFTGSGSGTDFTLTISNVQSEDLADYFCQQYSSYPYTFGGGTKLEIK
notes: mouse anti-human CS1 monoclonal, IgG2a; also called MuLuc63; muLuc63
EC50 [9]: 0.0661 µg/mL

B4: HuLuc63 (antibody, human IgG1, V domains shown)
VH: EVQLVESGGGLVQPGGSLRLSCAASGFDFSRYWMSWVRQAPGKGLEWIGEINPDSSTINYAPSLKDKFIISRDNAKNSLYLQMNSLRAEDTAVYYCARPDGNYWYFDVWGQGTLVTVSS
VL: DIQMTQSPSSLSASVGDRVTITCKASQDVGIAVAWYQQKPGKVPKLLIYWASTRHTGVPDRFSGSGSGTDFTLTISSLQPEDVATYYCQQYSSYPYTFGQGTKVEIK
notes: human IgG1/κ, transiently expressed in 293-H cells; also called humanized Luc63
EC50 [9]: 0.0701 µg/mL

B5: Luc69 (antibody, V domains shown)
VH: QVQLQQSGPELVKPGASVKISCKASGYAFSNSWMNWVKQRPGQGLEWIGRIYPGDGDTKSNGKFKGKATLTADKSSRAAYMQLSSLTSVDSAVYFCARSTMIMTGAMDYWGQGTSVTVSS
VL: DIVMTQSHKFMSTSVGDRVIITCKASQDVSTAVAWYQQKPGQSPKLLIYSASFRYTGVPDRFTGSGSGTDFTFTVSSVQAEDLAVYYCQQHYSTPPYTFGGGTKLEIK
notes: mouse anti-human CS1 monoclonal
binding result [1]: no binding (tested: 2 μg/ml) | binding result [2]: no binding (tested: 2 μg/ml)
